The values below are quoted from earlier work in publication PMC6006191.

The data set deals with GLRX3 (Homo sapiens) (UniProt O76003). Kind of data set: NMR.
Sequence of UniProt O76003 (O76003 2-335): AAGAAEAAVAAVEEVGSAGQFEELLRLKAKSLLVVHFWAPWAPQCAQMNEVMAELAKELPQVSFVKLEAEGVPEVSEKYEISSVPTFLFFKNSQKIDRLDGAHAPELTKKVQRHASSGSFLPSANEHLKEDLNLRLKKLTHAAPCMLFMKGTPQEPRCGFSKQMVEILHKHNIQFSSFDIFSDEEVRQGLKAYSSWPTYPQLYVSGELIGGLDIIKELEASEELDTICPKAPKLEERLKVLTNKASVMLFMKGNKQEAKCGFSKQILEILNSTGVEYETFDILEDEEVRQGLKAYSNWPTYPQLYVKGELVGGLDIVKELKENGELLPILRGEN

The term Kd denotes a measure of binding affinity in units of concentration. As to BOLA2 (apo) (from UniProt Q9H3K6), the Kd was 25 µM.
